According to the RNAGym collection of RNA variant scans (doi:10.1073/pnas.2313332121):

B1: TPR t1 (parent)
chain: GACCAAUCUGCCCUCAGAGCUCGAGAACAUCUUCGGAUGCAGAGGAGGCAGGCUUCGGUGGCGCGAUAGCGCCAACGUCCUCAACCUCCAAUGCAUCCCACCACAUGAUGAUGCCUGAAGAGCCUUGGUUUUUUG

Variants of: B1
Assay: polymerase ribozyme fitness, log enrichment relative to wild type (log ratio); higher = more active; in vitro selection for triplet polymerase activity
Summary of the method: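 Streptavidin-bead capture of gel-excised extended constructs, followed by RT-PCR, closed a single triplicate in vitro selection round. That round began by annealing PCR-built, transcribed mutant libraries of each subunit of a heterodimeric triplet polymerase ribozyme with a biotinylated primer, the partner subunit and triplets, then incubating them frozen at −7 °C. After Illumina sequencing of inputs and outputs, genotypes needed ≥10 input reads and ≥1 read per output. Fitness is the base-2 logarithm of genotype enrichment over wild-type enrichment, using inverse-variance-weighted replicate averages.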

| Variant | polymerase ribozyme fitness (log ratio) |
| --- | --- |
| GACCAAUCUGCCCUCAGAACUCGAGAACAUCUUCGGAUGCAGAGGAGGCAGGCUUCGGUGGCGCGAUAGCGCCAACGUCCUCAACCUCCAAUGCAUCCCACCACAAGAUGAUGCCUGAAGAGCCUUGGUUUUUUG | -2.97 |
| GACCAAUCUGCCCUCAGACCUCGAGAACAUCUUCGGAUGCAGAGGAGGCAGGCUUCGGUGGCGCGAUAGCGCCAACGUCCUCAACCUUCAAUGCAUCCCACCACAUGAUGAUGCCUGAAGAGCCUUGGUUUUUUG | -2.6 |
| GACCAAUCUGCCCUCAGAUCUCGAGAACGUCUUCGGAUGCAGAGGAGGCAGGCUUCGGUGGCGCGAUAGCGCCAACGUCCUCAACCUCCAAUGCAUCCCACCACAUGAUGAUGCCUGAAGAGCCUUGGUUUUUUG | -4.96 |
| GACCAAUCUGCCCUCAGAACUCGAGAACAUCUUCGGAUGCAGAGGAGGCAGGCUUCGGUGGCGCGAUAGCGCCAACGUCCUCAACCUCCAAUGCAUCCCACAACAUGAUGAUGCCUGAAGAGCCUUGGUUUUUUG | -5.35 |
| GACCAAUCUGCCCUCAGACCUCGAGAACAUCUUCGGAUGCAGAGGAGGAUGGCUUCGGUGGCGCGAUAUCGCCAACGUCCUCAACCUCUAAUGCAUCCCACCACAAGAUGAUGCCUGAAGAGGCUUGGUUUAGUG | -1.46 |
| GACCAAUCUGCCCUCAGAACUCGAGAACAUCUUCGGAUGCAGAGGAGGCAGGCUUCGGUGGCGCGAUAGCGCCAACGUCCUCAACCUCCAAUGCAUCCCACCACAUGAUGAUGACUGAAGUGCCUUGGUUUUUUG | -1.17 |
| GACCAAUCUGCCCUCAGACCUCGAGAACAUCUUCGGAUGCAGAGGAGGCAGGCUUCGGUGGCGCGAUACCGCCAACGUCCUCAACGUCCAAUGCAUCCCACCACAUGAUGAUGCCUGAAGGGCCUUGGUUUUUUG | -3.28 |
| GACCAAUCUGCCCUCAGAACUCGAGAACAUCUUCGGAUGCAGAGGAGGCAUGCUUCGGUAGCGCGAUAGCGCCAACGUCCUCAACCUCCAAUGCAUCCCACCACAUGAUGAUGCCUGAAGAGCUUUGGUUUUUUG | -5.85 |
| GACCAAUCUGCCCUCAGACCUCGAGAACAUCUUCGGAUGCAGAGGAGGCAGGCUUCGGUGACGCGAUAGCGCCAACGUCCGCAGCCUCCAGUGCAUCCCACCACAUGAUGGUGCCUGAAGAGCCUUGGUUUUUUG | -4.6 |
| GACCAAUCUGCCCUCAGACCUCGAGAACAUCUUCGGAUGCAGAGGAGGCAGGCUUCGGUGGCGCGAUAGUGCCAACGUCCUCAACCUCCAAUGCAUCCCACCACAUGAUGAAGCCUGAAAAGCCUUGGUCUUUUG | -2.23 |
| GACCAAUCUGCCCUCAGAUCUCGAGAACAUCUUCGGAUGCAGAGGAGGCAGGCUUCGGUGGCGCGAUAGCGCCAACGUCCUCAACCUCCAAUGCAUCCCACCACAUGAUGCUGCCUGAAGAGCCUUGGUUUUUUG | -2.32 |
| GACCAAUCUGCCCUCAGACCUCGAGAACAUCUUCGGAUGCACAGGAGGCAGGCUUCGGUGGCGCGAUAGCGCCAACGUCCUCAACCUCCAAUGCAUUCCACCACAUGAUGAUGCAUGAGGAGCCUUGGAUUUUUG | -5.99 |
| GACCAAUCUGCCCUCAGACCUCGAGAACAUGUUCGGAUGCAGAGGAGGCAGGCUUCGGUGGCGCGAUAGCGGCAACGUCCUCAACCUCCAAUGCAUCCCACCACAUGAUUAUGCCUGAAGAGCCUUGGUUAUUUG | -7.2 |
| GACCAAUCUGCCCUCAGAUCUCGAGAACAUCUUCGGAUGCAGUGGAGGCAGGCUUCGGUGGCGCGAUAGCGCCAACGUCCUCAACCUCCAAUGCAUCCCACCACAUGAUGAUGCCUGAAGAACAUUGGUUUUUUG | -2.23 |
| GACCAAUCUGCCCUCAGAACUCGAGAACAUCUUCGGAUGCAGAGGAGGCAGGCUUCGGUGGCCCGAUAGCGCCAAAGUCCUCAACCUCCAAUACAUCCCACCACAUGAUCAUGCCUGAAGAGCCUUGGUUUUUUG | -5.44 |
| GACCAAUCUGCCCUCAGACCUCGAGAACAUCUUCGGAUGCUGAGGAGGCAGGCUUCGGUGGCGGGAUAGCGCCAACGUCCUCAACCUCCAAUGCAUCACACCACAUGAAGAUGCCUGAAGAGCCUUGGUUUUUUG | -6.43 |
| GACCAAUCUGCCCUCAGAACUCGAGAACAUCUUCGGAUGCAGAUGAGGCAGGCUUCGGUGGCGCGAUAGCGCCAACGUCCUCAACCUCCAAUGCAUCCCACCACAUGAUGAUGCCUGAAGAGCAUUGGUUUUUUG | -1.74 |
| GACCAAUCUGCCCUCAGAUCUCGAGAACAUCUUCGGAUGCAGAGGAGGCAGGCUUCGGUGGCGCGAUAGCGCCAACGUCCUCAACCUCCAAUGCAUCCCACCACAUGAUGAUGCCUGAAGAGCCUUGGUUUUUUG | -2.52 |
| GACCAAUCUGCCCUCAGACCUCGAGAACAUCUUCGGAUGCAGAGGAGGCAGGCUUCGGUGGCGCGAUAGCGCCAACGUCCUCAACCUCCAAUGCAUCCCACCACAUGAUGAUGCCUGAAGAGCCUUGGUUUUUUG | -1.91 |
| GACCAAUCUGCCCUCAGAUCUCGAGAACAUCUUCGGAUGCUGAGGAGGCAGGCUUCGGUGGCCCGAUAGCGCCAACGUCCUCAACCUCCAAUGCAUCCCACCACAUGAUGGUGCCUGAAGAGCCUUGGUUUUUUG | -4.2 |
| GACCAAUCUGCCCUCAGAACUCGAGAACAUCUUCGGAUGCAGAGGAGGCAGGCUUCGGUGGCGCGAUAGCGCGAACUUCCUCAACCUCCAAUGCAUCCCACCACAUGAUGAAGCCUGAAGAGCCUUGAUUUUUUG | -2.41 |

| Variant | polymerase ribozyme fitness (log ratio) |
| --- | --- |
| GACCAAUCUGCCCUCAGAACUCGAGAACAUCUUCGGAUGCAGAGGAGGCAGGCUUCGCUGGCGCGAUAGCGCCAACGUCCUCAACCUCCAAUGCAUCCCACCACAUAAUGAUGUCUGAAGAGCCUUGGUUUUUUG | -3.12 |
| GACCAAUCUGCCCUCAGACCUCGAGAACAUCUUCGGAUGCAGAGGAGGCAGGCUUCGGUGGCGCGAUAGCGCCAACGUCCUCAACCUCCAAUGCAUCCCAACACAUGAUGAUGCCUGAAGAGCCUUGGUUUUUUG | -3.27 |
| GACCAAUCUGCCCUCAGACCUCGAGAACAUCUUCGGAUACAGAGGAGGCAGGAUUCGGUGGCGCGAUAGCGCCAAUGUCCUCAACCUCCAAUGCAUCCCACCACAUGAUGAUGCCUGAAGAGCCUUGGUUUUUUG | -3.34 |
| GACCAAUCUGCCCUCAGAACUCGAGAACAUCUUCGGAUGCAGAGGAGGCAGGCUUCGGUGGCGCGAUAGCGCCAACGUCCUCAACCUCCAAUGGAUCCCACCACAUGAUGAUGCCUGAAGAGCCUUGGUUUUUUG | -3.41 |
| GACCAAUCUGCCCUCAGAACUCGAGAACAUCUUCGGAUUCAGAGGAGGCAGGCUUCGGUGUCGCGAUAGCGCCAACGUCCUCAACCUCCAAUGCAUCCCACCACAUGAUGAUGCCUGAACAGCCUUGGUUUAUUG | -1.96 |
| GACCAAUCUGCCCUCAGACCUUGAGAACAUCUUCGGAUGCAGAGGCGGCAGGCUUCGGUGUCGCGAUAGCGCCAACGUCCUCAACCUCCAAUGCAUCCCACCACAUGAUGAUGCCUGAAGAGCCUUGGUUUUUUG | -5.14 |
| GACCAAUCUGCCCUCAGAUCUCGAGAACAUCUUCGGAUGCAGAGGAGGUAGGUUUCGGUUGCGCGAUAGCGCCAACGUCCUCAACCUCCAAUGCAUCCCACCACAUGAUGAUGCCUGAAGAGUCUUGGUUUUUUG | -5.84 |
| GACCAAUCUGCCCUCAGAACUCGAGAACAUCUUCGGAUGCAGAGGAGACAGGCUUCGGUGGCGCGAUAGCGCCAACGUCCUCAACCUCCAGUGCAUCCCACCACAUGAUGAUGCCUGAAGAGCCUUGGUUUUUUG | -3.87 |
| GACCAAUCUGCCCUCAGACCUCGAGAACAUCUUCGGAUGCUGAGGAGGCAGGCUUCGGUGGCGCGAUAGCACCAACGUCCUCAACCUGUAAUGCAUCCCACCAAAUGAUGAUGCCUGAAGAGCUUUGGUUUUUUG | -5.88 |
| GACCAAUCUGCCCUCAGAUCUCGAGAACAUCUUCGGAUGCAGAGGAGGCAGGCUUCGGUGGCGCGAUAGCGCCAACGUCCUCAACCUCCAAUGCAUCCCACCACAUGAUGAUGCCUGAAGUGCCUUGGUUUUUUG | 0.0875 |
| GACCAAUCUGCCCUCAGACUUCGAGAACAUGUUCGGAUGCAGAGGAGGCAGGCUUCGGUGGCGCGAUAGCGCCAACGUCCUCAACCUCUAAUGCAUCCCACCACAUGACGAUGCCUGAAGAGUCUUGGUUUUUUG | -7.81 |
| GACCAAUCUGCCCUCAGAACUCGAGAACAUCUUCGGAUGCAGAGGAGGCAGGCUUCGGUGGCGCGAUAGCGCCAACGUCCUCAACCUCCAAUGCAUCCCACCAUAUGAUGAUGCCUGAAGAGCCUUGGUUUUUUG | -2.85 |
| GACCAAUCUGCCCUCAGACCUCGAGAACAUCUUCGGAUGCAGAGGAGGCAGGCUUCGCUGGCGCGAUAGCGCCAUCGUCCUGAACCUCCAAUGCAUCCCACCACAUGAUGAUGCCUGAAGAGCCUUGGUUUUUUG | -3.28 |
| GACCAAUCUGCCCUCAGACCUCGAGAACAUCUUCGGAUGCAGAGAAGGCAGGUUUCGGUGGCGCGAUAGCGCCAACGUCCUCAACCUCCAAUGCAUCCCACCACAUGAUGAUGCCUGAAGAGCCUUGGUUUUUUG | -3.65 |
| GACCAAUCUGCCCUCAGACAUCGAGAACAUCUUCGGAUGCAGAGGAGGCAGGCUUUGGUGGCGCGAUAGCACCAACGUCCUCAACCUCCAAUGCUUCCCACUACAUGAUGAUGCCCGAAGAGUCUGGGUUUUUUG | -5.6 |
| GACCAAUCUGCCCUCAGACCUCGAGAACAUCUUCGGAUGCUGAGGAGGCAGGCUUCGGUGGCGCGAUAGCGCCAACGUCCUCAACCUCCAAUGCAUCCCACCACAUGAUGAUGCCUGAAGAGCCUUGGUCUUUUG | -2.43 |
| GACCAAUCUGCCCUCAGAACUCGAGAACAUCUUCGGAUGCAGAGGAGGCAGGCUUCGGUAGCGCGAUAGCGCCAACGUCCUCAACCUCCAAUGCAUCCCACCACAUGAUGAUGCCUGAAGAGCCUUGGUUUUUUG | -1.41 |
| GACCAAUCUGCCCUCAGAACUCGAGAACAUCUUCGGAUGCAGAGAAGGCAGGCUUCGGUGGUGCGAUAGCACCAACGUCCUCAACCUCCAAUGCAUCCCACCACAUGAUGAUGCCUGAAGAGCCUUGGUUUUUUG | -3.18 |
| GACCAAUCUGCCCUCAGACCUCGAGAACAUCUUCGGAUGCAGAGGAGGCAGGCUUCGGUGGAGCGAUAGCGCCAACGUCCUCAACCUCCAAUGCAACCCACCACAUGAUGAUGCCUGAAGAGCAUUGCUUUUUUG | -5.42 |
| GACCAAUCUGCCCUCAGACCUCGGGUACAUCUUUGGAUGCAGCGGAGGCAGGCUUCGGUGUCGCGAUAGCGCCAACGUCCUCAACCUCCAAUGCAUCCCACCACAUGAUGAUGCCUGAAGAGGCUUGGUUUUUUG | -7.57 |
| GACCAAUCUGCCCUCAGACCUCGAGAACAUCUUCGGAUGCAGAGGAGGCAGGGUUCGGUGGUGCGAUAGCGCCAACGUCCUCAACUUCCAAUGCAUCCCACCACAUGAUGAUGCCUGAAGAGCCUUGGUUUUUUG | -2.88 |
